Data published in patent US20230365684A1 (Janssen / Centocor, published 2023).
Numbering of substitutions follows the chain as printed. Each block holds one binder with its values, some of them ahead of it.

Tests used:
[1] = target: T1, human CD33 IgC2 domain, recombinant (human, UniProt P20138 136-259); test: SPR (Biacore 8K), antibody captured by anti-human Fc, antigen in solution
T1 construct: domain: IgC2; also called hu CD33 (IgC2); hCD33-IgC2
Description: (§1) Affinities (KD) for the interaction of anti-CD33 antibodies human CD33 (full length ECD and IgC2 domain) were obtained by SPR. The anti-CD33 antibodies were captured using an anti-human Fc antibody and the antigens were injected in solution.
(§2) The binding affinity of anti-CD33 antibodies and Llama vHHs to the recombinant human CD33 (FL ECD or IgC2 domain) was determined by surface plasmon resonance (SPR) using Biacore 8K instrument. […] The association and dissociation were monitored for 2 and 30 minutes, respectively, using a flow rate of 50 μL/min. Raw binding data was referenced by subtracting the analyte binding signals from blanks and analyzed using a 1:1 Langmuir binding model using the Biacore software to obtain the kinetics which were used to calculate the binding affinity.

[2] = target: T2, human CD33 (full length ECD), recombinant (human, UniProt P20138 18-259); test: as above
T2 construct: extracellular domain; Tag or HSA fusion partner unknown; also called hu CD33 (FL ECD); hCD33-FL ECD
T2 sequence (P20138 18-259): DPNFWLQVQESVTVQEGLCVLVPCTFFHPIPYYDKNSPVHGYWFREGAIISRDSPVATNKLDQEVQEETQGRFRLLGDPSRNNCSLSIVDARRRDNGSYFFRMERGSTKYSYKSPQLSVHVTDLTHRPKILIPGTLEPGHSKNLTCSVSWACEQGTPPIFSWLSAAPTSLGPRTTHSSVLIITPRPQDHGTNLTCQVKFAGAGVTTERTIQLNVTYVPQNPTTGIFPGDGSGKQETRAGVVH
Description: as §1, §2

[3] = target: T2, human CD33 (full length ECD), …; test: SPR (Biacore 8K), vHH-mono-Fc captured by anti-human Fc, antigen in solution
Description: as §2
The anti-CD33 Llama vHHs on a mono-Fc backbone were captured using an anti-human Fc antibody and the antigens were injected in solution.

T1 sequence (P20138 136-259 limits assumed): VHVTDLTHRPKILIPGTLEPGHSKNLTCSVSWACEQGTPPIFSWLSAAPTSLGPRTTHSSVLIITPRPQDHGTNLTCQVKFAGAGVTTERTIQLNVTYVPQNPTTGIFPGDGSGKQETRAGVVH

B5: C33B931 (antibody, V domains shown)
VH: not shown
VL: SYELTQPPSVSVSPGQTASITCSGDKLGSKFASWYQQKPGQSPVLVIYQDSKRPSGIPERFSGSNSGNTATLTISGTQAMDEADYYCQAWDSSTVVFGGGTKLTVL
Kd [2]: 0.4 nM

B6: C33B919 (antibody, V domains shown)
VH: QVQLVESGGGVVQPGRSLRLSCAASGFTFSSYGMHWVRQAPGKGLEWVAVISYDGSNKYYADSVKGRFTISRDNSKNTLYLQMNSLRAEDTAVYYCAKDFRSFDWLPPDSTSYYGMDVWGQGTTVTVSS
VL: B5 VL with S29D, F31Y, A32V, L45V, Y48H, S51R, S66F
binding result [1]: no binding (tested: 40 nM-1.6 nM CD33 antigen)
Kd [2]: 0.5 nM

B7: C33B125 (antibody, V domains shown)
VH: B6 VH
VL: B5 VL with S29D, F31Y, A32V, S33C, L45V, Y48H, S51R, S66F
Kd [1]: > 10 nM
Kd [2]: 0.1 nM

B8: C33B937 (antibody, V domains shown)
VH: B6 VH with A23V, D90G, T111A, Y114H
VL: B5 VL with S29D, F31Y, S51G, S66F, T69K, S92R, S93N
Kd [1]: 56 nM
Kd [2]: 0.3 nM

B9: C33B933 (antibody, V domains shown)
VH: B6 VH with A40S, N77S, F103L, Y114D
VL: B5 VL with D25H, S29D, F31Y, L45V, Q49K, S66F
Kd [2]: 0.5 nM

B10: C33B1783 (llama vHH on mono-Fc backbone) (Fc fusion)
chain: EVQLVESGGGLVQAGGSLRLSCAASGFTFDDYAVGWFRQVPGKEREGVSCISSSDGATYYADSVKGRFTISSDNAKNTVYLQMNSLKPEDTAVYYCTAIIVRGSGWERAAAACRYEYSYWGQGTQVTVSS
notes: vHH is placed first; not shown: mono-Fc backbone
Kd [3]: 0.0859 nM

Further lines, with some results ahead:

Kd [2]: 1.49 nM
B1: C33B1607 (antibody, V domains shown)
VH: EVQLQQSGPELVKPGSSVKISCKASGYTFTDYNINWVKQSHGKNLEWIGTINPNNGVTFYNQRFKGQATLTVDKSSSTAYMELRSLTSEDSAVYYCSRDGYDTYYAMDYWGQGTTLTVSS
VL: DIVMTQSHKFMSTSVGDRVSITCKASQDVRTAEAWYQQKPGQSPKLLIYSASNRYTGVPDRFTGSGSGTDFTFTISSVQAEDLAVYYCQQYYTTPRTFGGGTKLEIK
binding result [1]: no binding (tested: 40 nM-1.6 nM CD33 antigen)

Kd [1]: 6.8 nM
Kd [2]: 1.1 nM
B2: C33B1601 (antibody, V domains shown)
VH: EVQLVESGGGLVRPGGSLKLSCAASGFTFSNYAMSWVRQTPEKRLEWVAGISNSGYSLYYPDTLKGRFTISRDNARNTLYLQMISLRSEDTAMYYCARDGGSYPYAMDYWGHGTSVTVSS
VL: DIVMTQSQKFMSTSVGDRVSVTCKASQNVGTYVAWYQQKPGHSPKALIYSASYRYSGVPDRFTGSGSGTDFTLTISNVQSEDLADYFCQQYKSYPLTFGAGTKLELK

Kd [3]: 0.792 nM
B3: C33B1787 (llama vHH on mono-Fc backbone) (Fc fusion)
chain: EVQLVESGGGLVQAGGSLRLSCAASGFTFDDYAIGWFRQAPGKEREGVSCISSSDGSTYYVDSVKGRFTISSDNAKNTVYLQMNSLKPEDTAVYYCTALIIMYGSGSERAAAACRYKYEYWGQGTQVTVSS
notes: not shown: mono-Fc backbone

Kd [3]: 0.357 nM
B4: C33B1786 (llama vHH on mono-Fc backbone) (Fc fusion)
chain: EVQVVESGGGVVQSGGSLTLSCEASESILSFSTMDWFRQAPGKEREGVSCIRPRYSTTTHADSIKGRFKMYSDNAKNTIYLHMNSLQPEDTAVYYCHMYHYSSQYWGQGTQVTVSS
notes: not shown: mono-Fc backbone

Kd [3]: 0.206 nM
B11: C33B1782 (llama vHH on mono-Fc backbone) (Fc fusion)
chain: B10 chain with V40A, V48I, S72T, V79A, Y80F, I99V, S104T, S118A
notes: not shown: mono-Fc backbone

binding result [3]: binds
B12: C33B1784 (llama vHH on mono-Fc backbone) (Fc fusion)
chain: EVQLVESGGGLVQAGGSLRLSCAASGRTFSTYVMGWFRQAPGQERELVAAIVSGRNPTYADSVKSRFTISRDNAKNTIYLHMNSLQPEDTAVYYCHMYHYSSQYWGQGTQVTVSS
notes: not shown: mono-Fc backbone
